Assay results: article PMC4108183

B1: human TSTD1 (Homo sapiens) (protein)
chain: MAGAPTVSLPELRSLLASGRARLFDVRSREEAAAGTIPGALNIPVSELESALQMEPAAFQALYSAEKPKLEDEHLVFFCQMGKRGLQATQLARSLGYTGARNYAGAYREWLEKES
B2: yeast RDL1 (Saccharomyces cerevisiae S288C) (protein)
chain: MWKAVMNAWNGTESQSKNVSNIQSYSFEDMKRIVGKHDPNVVLVDVREPSEYSIVHIPASINVPYRSHPDAFALDPLEFEKQIGIPKPDSAKELIFYCASGKRGGEAQKVASSHGYSNTSLYPGSMNDWVSHGGDKLDL

Legend:
purified protein [1] = substrate: CC(C)(COP(=O)(O)OP(=O)(O)OC[C@H]1O[C@@H](n2cnc3c(N)ncnc32)[C@H](O)[C@@H]1OP(=O)(O)O)[C@@H](O)C(=O)NCCC(=O)NCCS; experiment: purified protein; details: alternate sulfane sulfur acceptor; pH 9.0; 37.0 °C
purified protein [2] = substrate: O=S(O)(O)=S; experiment: purified protein; details: pH 9.0, 37.0 °C

Row | Protein | Km (purified protein [1]) [µM] | Km (purified protein [2]; sulfane sulfur transferred to active site cysteine (Cys79)) [µM] | Km (purified protein [2]; sulfane sulfur transferred to active site cysteine (Cys98)) [µM]
1 | B1 | 90 ± 10 | 14000 ± 2000 | 
2 | B2 | 150 ± 50 |  | 2000 ± 500
